Results on 4 molecules are retold here after patent US20140206846A1 (published 2014).

In assay [1] the target is T1, VEGF (human, UniProt P15692 27-191).
T1 chain: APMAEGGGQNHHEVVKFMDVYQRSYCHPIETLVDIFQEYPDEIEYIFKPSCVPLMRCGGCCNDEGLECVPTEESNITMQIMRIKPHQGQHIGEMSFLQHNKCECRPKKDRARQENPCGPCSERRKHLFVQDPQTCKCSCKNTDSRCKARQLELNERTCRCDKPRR
The assay can be described thus: Biacore. A general note: SPR reads the build-up and loss of mass on a sensor chip optically.

In assay [2] the target is IL6 (human, UniProt P05231 30-212). In words: Biacore.
The target in assay [3] is T2, human IL6 (human, UniProt P05231 30-212). The assay can be described thus: Biacore; captured on GMCSF.
Assay [4] concerns the target T2, human IL6. The assay can be described thus: Biacore; captured on anti-LC.
For assay [5], the target named is MBP. In words: Biacore.
Assay [6] addresses GST. The assay can be described thus: Biacore.
Assay [7] addresses T2, human IL6. In words: Biacore.

One may read the koff as the first-order rate constant of dissociation. High values mean a short-lived complex, low ones a long-lived complex. A word on the Kd: it is the free concentration of one partner at which half of the binding sites on the other are occupied at equilibrium, for simple one-to-one binding. Low readings indicate a tighter complex, high ones a looser complex.

T2 sequence (P05231 30-212): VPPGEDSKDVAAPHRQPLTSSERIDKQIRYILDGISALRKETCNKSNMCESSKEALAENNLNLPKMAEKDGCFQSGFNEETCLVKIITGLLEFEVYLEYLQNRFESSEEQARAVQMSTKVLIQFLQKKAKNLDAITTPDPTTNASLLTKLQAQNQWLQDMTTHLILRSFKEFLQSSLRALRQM
Sequence of IL6 (P05231 30-212): as above

B1: IL6 P (Fab, V domains shown)
VH: EVQLVESGGGLVQPGGSLRLSCAASGFTFSSYAMSWIRQAPGKGLEWIGQISGSGGSTVYNYNVLGRFTISRDNSKNTLYLQMNSLRAEDTAVYYCARDSGYFDIWGQGTLVTVSS
VL: NIQKTQSPSSLSASVGDRVTITCRALWHISSYLAWYQQKPGKAPKLLIYAASSLYSGVPSRFSGSGSGTDFTLTISSLQPEDFATYYCQQYSGLPYTFGQGTKVEIKR
For the molecule B1, the koff was determined as 0.00204 s⁻¹ in assay [1] and 0.00413 s⁻¹ in assay [2].

B2: GH6L (bispecific antibody, V domains shown)
VH: WVQLVESGGGLVQPGGSLRLSCAAKGALFSTYAMSWIRQAPGKGLEWIGQISGSGGSTVYNYNVLGRFTISRDNSKNTLYLQMNSLRAEDTAVYYCARDSGYFDIWGQGTLVTVSS
VL: ATQRTQSPSSLSASVGDRVTITCRALWHISSYLAWYQQKPGKAPKLLIYAASWLYWDVPSRFSGSGSGTDFTLTISSLQPEDFATYYCQQYSGLPYTFGQGTKVEIK
For B2, the Kd in assay [3] worked out at 18.7 nM; in assay [4] it was 30.4 nM.

B3: Fab DT3 (bispecific antibody, V domains shown)
VH: WVQLVESGGGLVQPGGSLRLSCAARGFPFSHYAMSWIRQAPGKGLEWIGQISGSGGSTWYNHDIKGRFTISRDNSKNTLYLQMNSLRAEDTAVYYCARDSGYFDWWGQGTLVTVSS
VL: GIQMTQSPSSLSASVGDRVTITCRARWYISSYLAWYQQKPGKAPKLLIFAASRLILNVPSRFSGSGSGKDFTLTISSLQPEDFATYYCQQYSELPYTFGQGTKVEIK
B3: the Kd was 313 nM in assay [5] and 17 nM in assay [6].

B4: VH6L (bispecific antibody, V domains shown)
VH: YYQLVESGGGLVQPGGSLRLSCAADGFLFSGYAMSWIRQAPGKGLEWIGQISGSGGSTVYNYNVLGRFTISRDNSKNTLYLQMNSLRAEDTAVYYCARDTGYFDHWGQGTLVTVSS
VL: NIQKTQSPSSLSASVGDRVTITCRALWHISSYLAWYQQKPGKAPKLLIYAASHLHYGVPSRFSGSGSGTDFTLTISSLQPEDFATYYCQQYSGLPYTFGQGTKVEIK
For B4, the dissociation rate constant (koff) in assay [7] was 0.00472 s⁻¹.
